# In paper PMC3991817:
# Like-named read-outs stand apart in the source and are kept apart here.
# T1: Nkx2-1 (Rattus norvegicus (rat), UniProt P23441 1-372)
# T1 sequence: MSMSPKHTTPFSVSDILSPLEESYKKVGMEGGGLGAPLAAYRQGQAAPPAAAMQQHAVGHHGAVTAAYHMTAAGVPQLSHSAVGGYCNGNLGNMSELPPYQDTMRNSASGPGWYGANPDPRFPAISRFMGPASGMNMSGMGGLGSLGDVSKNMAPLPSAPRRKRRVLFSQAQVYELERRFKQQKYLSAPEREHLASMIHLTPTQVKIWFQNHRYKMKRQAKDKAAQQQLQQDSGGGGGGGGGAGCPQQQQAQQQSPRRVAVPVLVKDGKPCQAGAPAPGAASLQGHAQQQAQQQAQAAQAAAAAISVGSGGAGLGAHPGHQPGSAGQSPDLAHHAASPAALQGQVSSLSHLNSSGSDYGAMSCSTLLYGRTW
# B1: oligonucleotide CT (dsDNA)
# DNA 1: CTGTCTAAGCTTGAGTGGGCATCA
# DNA 2: TGATGCCCACTCAAGCTTAGACAG
# B2: oligo B (dsDNA)
# DNA 1: GAACCAGGGATTCTTCACACTTCATAGAGCAGCT
# DNA 2: AGCTGCTCTATGAAGTGTGAAGAATCCCTGGTTC
# Assays:
# Experiment in all cases: EMSA
# [1] = biological target: T2, Pax8b (Oncorhynchus mykiss (rainbow trout), UniProt W0S4A0 1-303)
# [2] = biological target: T3, Pax8a (Oncorhynchus mykiss (rainbow trout), UniProt W0S3W1 1-458)
# [3] = biological target: T2, Pax8b; remark: listed apart in the source
# [4] = biological target: T3, Pax8a; remark: listed apart in the source
# [5] = biological target: T1, Nkx2-1
Binder,binding result [1],binding result [2],binding result [3],binding result [4],binding result [5]
B1,binds,binds,–,–,–
B2,–,–,binds,binds,binds
